We go through 25 variants from FireProtDB (doi:10.1038/9384).

To fix the notation:
B1: Acyl-CoA-binding protein, P07107 (parent)
chain: MSQAEFDKAAEEVKHLKTKPADEEMLFIYSHYKQATVGDINTERPGMLDFKGKAKWDAWNELKGTSKEDAMKAYIDKVEELKKKYGI

The variants in the data set derive from B1. Conditions: Bos taurus; pH 5.3; 5 °C; GdnHCl; Fluorescence; Sodium acetate 0.02 M; structure 2ABD; whole UniProt chain shown.

MSQAEFDKAAEEVKHLKTKPADEEMLFIYSHYKAATVGDINTERPGMLDFKGKAKWDAWNELKGTSKEDAMKAYIDKVEELKKKYGI [Q34A]: the “ddG of mutation (higher = less stable)” value was determined as 3.03 kcal/mol, the denaturant m value came out at 4.49 kcal/mol/M and the unfolding free energy was 5.05 kcal/mol.

For MSQAEFDKAGEEVKHLKTKPADEEMLFIYSHYKQATVGDINTERPGMLDFKGKAKWDAWNELKGTSKEDAMKAYIDKVEELKKKYGI [A10G], the “ddG of mutation (higher = less stable)” value stood at 2 kcal/mol, the denaturant m value was determined as 3.4 kcal/mol/M and the unfolding free energy is 6.08 kcal/mol.

With MSQAEFDKAAEEVKHLKTKPADEEMLFIYSHNKQATVGDINTERPGMLDFKGKAKWDAWNELKGTSKEDAMKAYIDKVEELKKKYGI [Y32N], the “ddG of mutation (higher = less stable)” value was found to be 0.97 kcal/mol, the denaturant m value was found to be 4.95 kcal/mol/M and the unfolding free energy was 7.11 kcal/mol.

In the case of MSQAEFDKAAEEVKHLKTKAADEEMLFIYSHYKQATVGDINTERPGMLDFKGKAKWDAWNELKGTSKEDAMKAYIDKVEELKKKYGI [P20A], the “ddG of mutation (higher = less stable)” value was found to be 0.91 kcal/mol, the denaturant m value came out at 3.3 kcal/mol/M and the unfolding free energy came to 7.17 kcal/mol.

Turning to MSQAEADKAAEEVKHLKTKPADEEMLFIYSHYKQATVGDINTERPGMLDFKGKAKWDAWNELKGTSKEDAMKAYIDKVEELKKKYGI [F6A], the “ddG of mutation (higher = less stable)” value stood at 2.63 kcal/mol, the denaturant m value is 3.51 kcal/mol/M and the unfolding free energy came to 5.45 kcal/mol.

For MSQAEFDKAAEEAKHLKTKPADEEMLFIYSHYKQATVGDINTERPGMLDFKGKAKWDAWNELKGTSKEDAMKAYIDKVEELKKKYGI [V13A], the “ddG of mutation (higher = less stable)” value stood at 1.5 kcal/mol, the denaturant m value worked out at 3.47 kcal/mol/M and the unfolding free energy is 6.58 kcal/mol.

As to MSQAEFDKAAEEVKHLKTKPADEEMLFIYSHYKQAAVGDINTERPGMLDFKGKAKWDAWNELKGTSKEDAMKAYIDKVEELKKKYGI [T36A], the “ddG of mutation (higher = less stable)” value was 1.28 kcal/mol, the denaturant m value is 3.93 kcal/mol/M and the unfolding free energy worked out at 6.8 kcal/mol.

Regarding MSQAEFDKAAEEVKHLKTKPADEEMLFIYSHYKQATVGDINTERPGMLDFKGKAKWDAWNELKGTSKEDAMKAYIDKAEELKKKYGI [V78A], the “ddG of mutation (higher = less stable)” value came out at 1.54 kcal/mol, the denaturant m value was determined as 3.78 kcal/mol/M and the unfolding free energy turned out to be 6.54 kcal/mol.

On to MSQAEFDKAAEEVKHLKTKPADEEMLAIYSHYKQATVGDINTERPGMLDFKGKAKWDAWNELKGTSKEDAMKAYIDKVEELKKKYGI [F27A], for which the “ddG of mutation (higher = less stable)” value was determined as 1.53 kcal/mol, the denaturant m value was determined as 3.8 kcal/mol/M and the unfolding free energy was 6.55 kcal/mol.

As to MSQAEFDKAAEEVKHLKTKPADEEMLFIYSHYEQATVGDINTERPGMLDFKGKAKWDAWNELKGTSKEDAMKAYIDKVEELKKKYGI [K33E], the “ddG of mutation (higher = less stable)” value was 1.47 kcal/mol, the denaturant m value was 3.42 kcal/mol/M and the unfolding free energy turned out to be 6.61 kcal/mol.

Take MSQAEFDKAAEEVKHLKTKPADEEMLFIYSHYAQATVGDINTERPGMLDFKGKAKWDAWNELKGTSKEDAMKAYIDKVEELKKKYGI [K33A]: the “ddG of mutation (higher = less stable)” value was found to be 1.61 kcal/mol, the denaturant m value came to 3.39 kcal/mol/M and the unfolding free energy is 6.47 kcal/mol.

Consider MSQAEFDKAAEEVKHLKTKPADEEMLFIYSHYKQATVGDANTERPGMLDFKGKAKWDAWNELKGTSKEDAMKAYIDKVEELKKKYGI [I40A], for which the “ddG of mutation (higher = less stable)” value turned out to be 1.06 kcal/mol, the denaturant m value stood at 3.51 kcal/mol/M and the unfolding free energy stood at 7.02 kcal/mol.

In the case of MSQAEFDKAAEEVKHLKTKPADEEMLFIYSHYKQATVGDINTERPGMLDFKGKAKWDAWNELKGTSKEDAMKAYIDKVEEAKKKYGI [L81A], the “ddG of mutation (higher = less stable)” value came out at 4.57 kcal/mol, the denaturant m value turned out to be 3.08 kcal/mol/M and the unfolding free energy amounted to 3.51 kcal/mol.

As for MSQAEFDKAAEEVKHLKTKPADEEMLFIYSHYKQATVGDINTERPGMLDFKGKAKWDAWNELKGTSKEDAMKAFIDKVEELKKKYGI [Y74F], the “ddG of mutation (higher = less stable)” value was -0.03 kcal/mol, the denaturant m value amounted to 3.31 kcal/mol/M and the unfolding free energy was 8.11 kcal/mol.

With MSQAEFDKAAEEVKHLKTKPADEEMAFIYSHYKQATVGDINTERPGMLDFKGKAKWDAWNELKGTSKEDAMKAYIDKVEELKKKYGI [L26A], the “ddG of mutation (higher = less stable)” value is 2.02 kcal/mol, the denaturant m value came out at 3.36 kcal/mol/M and the unfolding free energy was 6.06 kcal/mol.

In the case of MSQAEFDKAAEEVKHLKTKPADEEMLFIYSHYKQATVGDINTERPGMLDFKGMAKWDAWNELKGTSKEDAMKAYIDKVEELKKKYGI [K53M], the “ddG of mutation (higher = less stable)” value was -0.48 kcal/mol, the denaturant m value was 3.71 kcal/mol/M and the unfolding free energy amounted to 8.56 kcal/mol.

On to MSQAEFDKAAEEVKHLKTKPAAEEMLFIYSHYKQATVGDINTERPGMLDFKGKAKWDAWNELKGTSKEDAMKAYIDKVEELKKKYGI [D22A], for which the “ddG of mutation (higher = less stable)” value came out at 0.4 kcal/mol, the denaturant m value is 3.32 kcal/mol/M and the unfolding free energy amounted to 7.68 kcal/mol.

Turning to MSQAEFDKAAEEVKHLKTKPADEEMLFIYSHYKQATVGDINTERPGMLDFKGKAMWDAWNELKGTSKEDAMKAYIDKVEELKKKYGI [K55M], the “ddG of mutation (higher = less stable)” value was 0.22 kcal/mol, the denaturant m value came to 3.33 kcal/mol/M and the unfolding free energy stood at 7.86 kcal/mol.

As for MSQAEFDKAAEEVKHLKTKPADEEMLFIYSHYKQATVGDINTERPGMLDFKGKAAWDAWNELKGTSKEDAMKAYIDKVEELKKKYGI [K55A], the “ddG of mutation (higher = less stable)” value came to 1.41 kcal/mol, the denaturant m value amounted to 3.15 kcal/mol/M and the unfolding free energy was found to be 6.67 kcal/mol.

On to MSQAEFDKAAEEVKHLKTKPADEEMLFINSHYKQATVGDINTERPGMLDFKGKAKWDAWNELKGTSKEDAMKAYIDKVEELKKKYGI [Y29N], for which the “ddG of mutation (higher = less stable)” value came to 2.47 kcal/mol, the denaturant m value is 3.65 kcal/mol/M and the unfolding free energy was 5.61 kcal/mol.

With MSQAEFDKAAEEVKHLKTKPADEEMLFIFSHYKQATVGDINTERPGMLDFKGKAKWDAWNELKGTSKEDAMKAYIDKVEELKKKYGI [Y29F], the “ddG of mutation (higher = less stable)” value worked out at 1.26 kcal/mol, the denaturant m value was 3.56 kcal/mol/M and the unfolding free energy was 6.82 kcal/mol.

In the case of MSQAEFDKAAEEVKHLKTKPADEEMLFIASHYKQATVGDINTERPGMLDFKGKAKWDAWNELKGTSKEDAMKAYIDKVEELKKKYGI [Y29A], the “ddG of mutation (higher = less stable)” value was determined as 2.52 kcal/mol, the denaturant m value was determined as 3.97 kcal/mol/M and the unfolding free energy was found to be 5.56 kcal/mol.

Turning to MSQAEFDKAAEEVKHLKTKPADEEMLFIYSHYKQATVGDINTERPGMLDFKGKAKWDAWNELKGTSKEDAMKAYADKVEELKKKYGI [I75A], the “ddG of mutation (higher = less stable)” value was determined as 1.34 kcal/mol, the denaturant m value was found to be 3.91 kcal/mol/M and the unfolding free energy came to 6.74 kcal/mol.

As for MSQAEFDKAAEEVKHLKTKPADEEMLFIYSHYKQATVGDINTERPGMLDFKGKAKWDAWNELKGTSKADAMKAYIDKVEELKKKYGI [E68A], the “ddG of mutation (higher = less stable)” value worked out at 0.8 kcal/mol, the denaturant m value stood at 3.45 kcal/mol/M and the unfolding free energy is 7.28 kcal/mol.

With MSQAEFDKAAEEVKHAKTKPADEEMLFIYSHYKQATVGDINTERPGMLDFKGKAKWDAWNELKGTSKEDAMKAYIDKVEELKKKYGI [L16A], the “ddG of mutation (higher = less stable)” value was found to be 3.57 kcal/mol, the denaturant m value was 3.19 kcal/mol/M and the unfolding free energy turned out to be 4.51 kcal/mol.
